Experimental data taken from patent publication US6500669.

Biological target: hUBF (upstream binding factor, RNA polymerase I transcription factor) (Homo sapiens) (UniProt P17480)
Assay: footprint
Conditions: apparent Kd, half-maximal binding; cooperative, Hill 2.7; 14 mM MgCl2, 50 mM KCl, pH 7.9, 30 C

Sequence of hUBF (upstream binding factor, RNA polymerase I transcription factor) (Homo sapiens) (P17480 whole entry): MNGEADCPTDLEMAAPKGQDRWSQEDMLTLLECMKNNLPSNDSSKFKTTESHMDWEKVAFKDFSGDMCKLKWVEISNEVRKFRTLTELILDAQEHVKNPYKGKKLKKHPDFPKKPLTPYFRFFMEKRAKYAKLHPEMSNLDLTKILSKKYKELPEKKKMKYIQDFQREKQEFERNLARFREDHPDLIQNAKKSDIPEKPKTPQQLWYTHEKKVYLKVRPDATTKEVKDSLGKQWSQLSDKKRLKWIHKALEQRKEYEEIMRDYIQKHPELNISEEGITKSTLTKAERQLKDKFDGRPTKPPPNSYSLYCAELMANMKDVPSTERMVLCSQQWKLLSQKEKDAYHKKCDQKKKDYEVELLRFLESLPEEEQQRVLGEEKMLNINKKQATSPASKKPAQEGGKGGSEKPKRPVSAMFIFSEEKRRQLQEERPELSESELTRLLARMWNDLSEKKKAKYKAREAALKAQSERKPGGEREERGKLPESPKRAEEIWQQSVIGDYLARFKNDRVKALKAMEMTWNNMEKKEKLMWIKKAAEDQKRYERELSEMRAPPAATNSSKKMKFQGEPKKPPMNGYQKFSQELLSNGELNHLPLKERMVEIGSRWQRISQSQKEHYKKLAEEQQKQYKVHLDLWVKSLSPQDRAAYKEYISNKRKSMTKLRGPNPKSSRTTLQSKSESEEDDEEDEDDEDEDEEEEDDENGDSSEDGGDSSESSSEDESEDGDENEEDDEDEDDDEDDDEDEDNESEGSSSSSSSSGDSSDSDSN

With “human rRNA gene promoter fragment -208 to +78 (EcoRI-BstEII of pSBr208)” the Kd was 0.018 nM.
